The text below walks through data of patent US20060183130A1 (VANDERBILT UNIVERSITY, published 2006).

The target of this test is T1, endogenous c-Myc of p53-/- mouse embryo fibroblasts (mouse, UniProt P01108-2 1-439, limits assumed).
T1 construct: Endogenous protein in a cell lysate
The experiment in a line: co-IP, summary of the experiments (endogenous proteins). The text has this:
FIGS. 2A-F ARF—binds to c-Myc. FIGS. 2A-D, Coimmunoprecipitation of ARF and c-Myc. Cos-7 cells transfected with c-Myc and/or ARF were subjected to immunoprecipitation (IP) using anti-Mycfl (fl, full length; FIG. 2A) or anti-ARF (FIG. 2B) followed by immunoblot (IB) analysis using the indicated antibody. FIG. 2C, c-myc^{-/-} cells, ARF^{-/-} MEFs or p53^{-/-} MEFs were subjected to IP using anti-Mycfl followed by IB analysis. FIG. 2D, HeLa cells were subjected to IP using anti-p14ARF or anti-Mycfl followed by IB analysis. FIG. 2E, Coimmunoprecipitation of c-Myc deletions with ARF. Cos-7 cells transfected with the indicated c-Myc deletion mutant were subjected to IP with anti-ARF followed by IB analysis. FIG. 2F, Schematic representation of the structure of c-Myc and c-Myc deletions showing relative binding to ARF.
Immunoprecipitation and Immunoblotting Analysis. Cell lysates were prepared and coimmunoprecipitation of endogenous proteins was performed as described previously (Weber et al., 1999). For coimmunoprecipitation of exogenous proteins, cells were lysed in Ab lysis buffer (20 mM Tris, pH 7.5, 0.5% Triton X-100, 0.5% deoxycholic acid (DOC) and 0.5% SDS, 1 mM EDTA) and immunoprecipitates were subjected immunoblot analysis using anti-c-Mycfl (06-340, Upstate) or anti-ARF (Ab80, GeneTex; 07-543, Upstate) and enhanced chemiluminescence for detection. […]

T1 sequence (P01108 16-454 limits assumed): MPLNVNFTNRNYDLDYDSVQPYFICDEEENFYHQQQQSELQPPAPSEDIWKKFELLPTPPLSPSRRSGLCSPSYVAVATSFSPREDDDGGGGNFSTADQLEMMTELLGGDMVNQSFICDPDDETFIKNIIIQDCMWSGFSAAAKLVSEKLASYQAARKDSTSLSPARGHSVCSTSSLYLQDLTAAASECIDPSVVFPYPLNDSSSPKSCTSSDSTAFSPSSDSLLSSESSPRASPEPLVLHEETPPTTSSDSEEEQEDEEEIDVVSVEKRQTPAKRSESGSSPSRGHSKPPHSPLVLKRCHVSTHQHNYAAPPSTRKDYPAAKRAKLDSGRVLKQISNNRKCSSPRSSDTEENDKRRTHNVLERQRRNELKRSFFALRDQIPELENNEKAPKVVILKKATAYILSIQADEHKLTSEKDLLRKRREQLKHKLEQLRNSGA

B1: mouse p19ARF (murine p19Arf) (other)
chain: MGRRFLVTVRIQRAGRPLQERVFLVKFVRSRRPRTASCALAFVNMLLRLERILRRGPHRNPGPGDDDGQRSRSSSSAQLRCRFELRGPHYLLPPGARRSAGRLPGHAGGAARVRGSAGCARCLGSPAARLGPRAGTSRHRAIFAFRWVLFVFRWVVFVYRWERRPDRRA
Take B1: the binding result is “binds”.
